Common to all, as to assay: cell_activity; 3T40 transposition in E. coli T5 vs 3T3/WT
Holding throughout (details): chain copies: 2

In one series the target is T1, Mos-1 transposase FQ (Drosophila mauritiana, UniProt Q7JQ07 SEQ:1-345, F53Y,Q91R).
T1 sequence: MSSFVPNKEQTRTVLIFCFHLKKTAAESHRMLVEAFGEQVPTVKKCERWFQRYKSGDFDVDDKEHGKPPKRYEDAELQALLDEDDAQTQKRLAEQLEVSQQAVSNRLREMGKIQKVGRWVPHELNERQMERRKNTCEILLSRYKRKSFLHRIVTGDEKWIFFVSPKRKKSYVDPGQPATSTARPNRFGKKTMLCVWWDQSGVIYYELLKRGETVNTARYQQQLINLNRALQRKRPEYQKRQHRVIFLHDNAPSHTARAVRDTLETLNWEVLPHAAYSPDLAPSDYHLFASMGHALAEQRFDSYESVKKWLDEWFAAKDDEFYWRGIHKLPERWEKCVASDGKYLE
How it is done: (§1) Escherichia coli JM109 bacteria were co-transformed with the pBC 3T3 plasmid (comprising a transposition reporter 2 ITR 3′ mariner-like element and the chloramphenicol resistance gene) and with the inducible vector encoding for the transposase (pKK-Tnp or pMal-Tnp) comprising the ampicillin resistance gene. The bacteria selection was performed on ampicillin (100 μg/ml) and chloramphenicol in order to verify the presence of the two plasmids.
(§2) The JM109 bacteria containing both the pBC 3T3 plasmid and the pKK-Tnp (or pMalC2X-Tnp) plasmid were placed in culture for 1 hr at 37° C. in 250 μl of LB. This inoculum was then poured into 5 ml of LB supplemented with 1 mM IPTG. The culture was titrated on LB plates (100 μl of a 1/1000 dilution) and on LB-Tet plates (12.5 μg/ml) (250 μl of the non-diluted culture). The culture induced by IPTG was then cultured for 5 hours at 32° C. (optimal temperature of transposase) under stirring (250 rpm). The bacterial suspension was then titrated on LB plates (100 μl of a 1/250,000 dilution) and on LB-tet plates (100 μl of the undiluted bacterial suspension). The plates were placed at 37° C. overnight. The following day, the colonies were counted on LB and LB-Tet plates, and the transposition frequency (equal to the number of tetracycline bacteria over the number of bacterial per 1 ml of undiluted bacterial suspension) was calculated.
(§3) In order to evaluate the transposition efficiency of systems associating a hyperactive transposase and a pseudo-transposon that is also hyperactive, various combinations were tested in the transposition test in bacteria described in part I, paragraph I-B above.

The next series deals with T2, Mos-1 transposase QY (Drosophila mauritiana, UniProt Q7JQ07 SEQ:1-345, Q91R,Y237C).
T2 sequence: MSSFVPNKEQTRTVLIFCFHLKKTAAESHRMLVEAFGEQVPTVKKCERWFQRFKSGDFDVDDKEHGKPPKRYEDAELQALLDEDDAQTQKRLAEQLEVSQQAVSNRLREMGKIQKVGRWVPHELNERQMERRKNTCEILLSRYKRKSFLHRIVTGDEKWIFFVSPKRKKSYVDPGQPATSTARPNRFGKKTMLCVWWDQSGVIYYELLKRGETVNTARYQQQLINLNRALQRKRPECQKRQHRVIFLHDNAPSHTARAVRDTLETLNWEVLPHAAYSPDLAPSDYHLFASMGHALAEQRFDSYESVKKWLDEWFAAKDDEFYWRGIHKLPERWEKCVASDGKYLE
How it is done:
as §1, §2, §3

The next series addresses T3, Mos-1 transposase FQET (Drosophila mauritiana, UniProt Q7JQ07 SEQ:1-345, F53Y,Q91R,E137K,T216A).
T3 sequence: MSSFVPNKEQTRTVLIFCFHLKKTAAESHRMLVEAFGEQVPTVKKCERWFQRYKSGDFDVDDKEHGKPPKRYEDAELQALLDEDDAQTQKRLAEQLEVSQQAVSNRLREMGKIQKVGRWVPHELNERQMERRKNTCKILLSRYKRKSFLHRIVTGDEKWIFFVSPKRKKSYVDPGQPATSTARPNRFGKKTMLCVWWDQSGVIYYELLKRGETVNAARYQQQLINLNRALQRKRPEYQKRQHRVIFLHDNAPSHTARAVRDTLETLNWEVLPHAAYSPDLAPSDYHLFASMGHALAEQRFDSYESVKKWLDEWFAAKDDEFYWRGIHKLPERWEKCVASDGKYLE
How it is done: as §1, §2, §3

The next series addresses T4, Mos-1 transposase TY (Drosophila mauritiana, UniProt Q7JQ07 SEQ:1-345, T216A,Y237C).
T4 sequence: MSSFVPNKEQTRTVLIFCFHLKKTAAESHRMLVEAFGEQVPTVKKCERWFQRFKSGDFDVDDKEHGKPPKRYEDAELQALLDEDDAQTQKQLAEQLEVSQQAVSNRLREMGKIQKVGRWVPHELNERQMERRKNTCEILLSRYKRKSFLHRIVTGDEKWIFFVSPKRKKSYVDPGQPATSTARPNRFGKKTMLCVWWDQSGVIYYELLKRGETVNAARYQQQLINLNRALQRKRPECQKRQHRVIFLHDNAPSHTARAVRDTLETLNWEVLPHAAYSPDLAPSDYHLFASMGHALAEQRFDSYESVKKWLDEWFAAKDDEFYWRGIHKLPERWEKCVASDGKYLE
Here is the method:
as §1, §2, §3

Here are results for one molecule from patent publication US20100291682, “SYSTEM FOR TRANSPOSING HYPERACTIVE RECOMBINANT DERIVATIVES OF MOS-1 TRANSPOSON” (published 2010).

B1: ITR40 (dsDNA)
DNA 1: TCAGGTGTACAAGTATGTAATGTCGTTA
DNA 2: TAACGACATTACATACTTGTACACCTGA
Regarding B1, the activity with Mos-1 transposase FQ worked out at 2.5 fold; in the series with Mos-1 transposase QY, 1.3 fold; with Mos-1 transposase FQET it was 3.7 fold; with Mos-1 transposase TY, 36.2 fold.
